The source of these data is patent US20090011979A1 (VIRON THERAPEUTICS, published 2009).

In one experiment the target is T1, mouse IL-18 (mouse, UniProt P70380 36-192).
T1 construct: also called murine IL-18
T1 sequence: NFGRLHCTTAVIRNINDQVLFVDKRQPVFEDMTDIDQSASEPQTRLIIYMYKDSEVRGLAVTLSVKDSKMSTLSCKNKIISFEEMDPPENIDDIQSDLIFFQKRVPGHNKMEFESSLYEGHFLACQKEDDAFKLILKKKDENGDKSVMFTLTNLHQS
The experiment is described as follows: Biacore (row 'Human/mouse IL-18 Biacore'). A general note: SPR reads the build-up and loss of mass on a sensor chip optically.

The target of experiment [1] is T2, human IL-18 (human, UniProt Q14116 37-193).
T2 construct: also called hIL-18
T2 sequence: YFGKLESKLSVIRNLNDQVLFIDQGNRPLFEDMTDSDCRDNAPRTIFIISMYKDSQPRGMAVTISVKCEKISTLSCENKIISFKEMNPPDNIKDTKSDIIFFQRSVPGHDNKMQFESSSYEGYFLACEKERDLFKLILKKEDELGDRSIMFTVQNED
As to the kind of experiment: immunoprecipitation (row 'Human IL-18 immunoprecipitation').

For experiment [2], the target named is T2, human IL-18. As to the kind of experiment: Biacore (row 'Human/mouse IL-18 Biacore').

B1: tagged YCI (YMTV IL-18 bp with a C-terminal myc/his tag) (other)
chain: EKECDKHRSVNIQVPMKETSEVLLRCTGSSYFKHFSYVYWLVGESETVDQLQQNSGYGETSHPSKPHECGNLPSADLVLTNMTEKMRDTKLTCVLMDPDGHIDESLVLREVWDCFNKT
notes: also called 6xHis-tagged YCI; his-tagged version of the YCI
For B1, the binding result in the experiment with mouse IL-18 and with human IL-18 [1] was “binds” in each case.

B2: untagged YCI (YMTV IL-18 bp, YMTV Cytokine Inhibitor, without tag) (other)
chain: EKECDKHRSVNIQVPMKETSEVLLRCTGSSYFKHFSYVYWLVGESETVDQLQQNSGYGETSHPSKPHECGNLPSADLVLTNMTEKMRDTKLTCVLMDPDGHIDESLVLREVWDCFNKT
notes: also called IL-18 bp from YMTV; purified untagged YCI protein
Turning to B2, the binding result with human IL-18 [2] and with mouse IL-18 was “binds” in each case.
